The values that follow come from patent publication US7223556 (Harvard, dated 2007).

Assay [1] has as its target Skp1p (Saccharomyces cerevisiae) (UniProt P52286). Kind of assay: cell-based or functional assay.
Assay [2] has as its target EE-tagged HPV16-E2 (human papillomavirus type 16) (UniProt P03120). The assay is described as follows: cell-based or functional assay.
In assay [3] the target is retinoblastoma tumor suppressor protein (pRB) (UniProt P06400). Kind of assay: cell-based or functional assay.
The target of assay [4] is T1, retinoblastoma tumor suppressor protein (pRB) (UniProt P06400 1-928).
T1 construct: For the co-immunoprecipitation it was translated in vitro and 35S-labelled; In yeast Y81 cells it was expressed from plasmid p2202TRB
T1 sequence: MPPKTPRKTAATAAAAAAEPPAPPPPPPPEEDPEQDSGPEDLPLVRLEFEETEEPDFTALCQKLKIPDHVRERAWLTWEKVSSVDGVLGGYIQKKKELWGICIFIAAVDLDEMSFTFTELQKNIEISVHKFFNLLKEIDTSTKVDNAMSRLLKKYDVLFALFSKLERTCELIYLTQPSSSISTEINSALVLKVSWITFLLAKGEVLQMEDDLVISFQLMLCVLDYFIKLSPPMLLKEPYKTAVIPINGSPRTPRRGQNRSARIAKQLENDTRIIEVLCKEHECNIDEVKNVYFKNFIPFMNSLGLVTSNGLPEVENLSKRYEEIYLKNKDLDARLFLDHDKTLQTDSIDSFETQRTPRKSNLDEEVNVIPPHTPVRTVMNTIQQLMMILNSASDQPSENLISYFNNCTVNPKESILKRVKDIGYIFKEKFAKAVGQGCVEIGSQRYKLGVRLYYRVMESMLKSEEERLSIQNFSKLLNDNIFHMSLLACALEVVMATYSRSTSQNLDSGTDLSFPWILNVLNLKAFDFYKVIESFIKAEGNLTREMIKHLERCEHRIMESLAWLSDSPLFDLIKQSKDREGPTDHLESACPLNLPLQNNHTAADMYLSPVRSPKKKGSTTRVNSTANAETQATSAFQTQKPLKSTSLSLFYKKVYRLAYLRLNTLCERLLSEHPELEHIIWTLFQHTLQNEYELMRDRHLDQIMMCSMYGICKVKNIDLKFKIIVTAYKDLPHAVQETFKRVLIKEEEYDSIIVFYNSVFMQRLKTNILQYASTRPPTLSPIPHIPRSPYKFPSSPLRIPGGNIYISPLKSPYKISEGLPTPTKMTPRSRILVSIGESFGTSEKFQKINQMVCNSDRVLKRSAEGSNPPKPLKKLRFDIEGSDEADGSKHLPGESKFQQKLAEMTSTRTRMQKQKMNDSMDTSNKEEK
Kind of assay: co-immunoprecipitation of in vitro translated 35S-labelled proteins with anti-Flag M2 antibody, SDS PAGE.

Skp1p (Saccharomyces cerevisiae), sequence (P52286 whole entry): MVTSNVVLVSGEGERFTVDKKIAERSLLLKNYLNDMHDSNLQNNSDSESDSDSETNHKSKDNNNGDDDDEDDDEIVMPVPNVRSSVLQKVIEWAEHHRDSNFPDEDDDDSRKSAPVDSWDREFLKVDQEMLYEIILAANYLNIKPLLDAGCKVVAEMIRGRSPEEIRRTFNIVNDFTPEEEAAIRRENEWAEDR
EE-tagged HPV16-E2 (human papillomavirus type 16), sequence (P03120 whole entry): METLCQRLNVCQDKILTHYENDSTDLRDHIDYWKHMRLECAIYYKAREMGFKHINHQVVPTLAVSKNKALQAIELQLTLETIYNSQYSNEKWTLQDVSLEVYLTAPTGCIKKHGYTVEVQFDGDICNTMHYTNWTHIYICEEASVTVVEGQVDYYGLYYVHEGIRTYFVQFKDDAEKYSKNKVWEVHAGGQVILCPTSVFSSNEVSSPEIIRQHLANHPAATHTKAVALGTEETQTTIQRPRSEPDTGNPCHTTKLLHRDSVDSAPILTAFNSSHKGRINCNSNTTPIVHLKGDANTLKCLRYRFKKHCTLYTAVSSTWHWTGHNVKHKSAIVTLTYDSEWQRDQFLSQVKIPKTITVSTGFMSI

Take “Cdc4p(G300D) (from UniProt P07834 1-779)”: in assay [1], the half life of the mutant Cdc4p protein after promoter shut-off in KY130 cells is greater than 60 min.

The molecule Cdc4p(ΔF) showed a half life of the mutant Cdc4p protein after promoter shut-off in KY130 cells in assay [1] greater than 60 min.

On to “Cdc4p^F/WD-E1C (from UniProt P03114 424-649)”, for which, in assay [2], the half life of EE-E2 after promoter shut-off in INVSc1 yeast cells came out at 16 min. In turn, “Cdc4p^F/WD-E7N (from UniProt P03129 2-35)” had a half life of pRB after promoter shut-off in Y81 yeast cells in assay [3] of 70 minutes. “Cdc4p^F/WD-βgal (from UniProt P00722 10-1024)”: the half life of the βgal fusion after promoter shut-off in KY130 cells in assay [1] was found to be 35 min.

B1: Flag-tagged βTrCP (other)
chain: MDPAEAVLQEKALKFMNSSEREDCNNGEPPRKIIPEKNSLRQTYNSCARLCLNQETVCLASTAMKTENCVAKTKLANGTSSMIVPKQRKLSASYEKEKELCVKYFEQWSESDQVEFVEHLISQMCHYQHGHINSYLKPMLQRDFITALPARGLDHIAENILSYLDAKSLCAAELVCKEWYRVTSDGMLWKKLIERMVRTDSLWRGLAERRGWGQYLFKNKPPDGNAPPNSFYRALYPKIIQDIETIESNWRCGRHSLQRIHCRSETSKGVYCLQYDDQKIVSGLRDNTIKIWDKNTLECKRILTGHTGSVLCLQYDERVIITGSSDSTVRVWDVNTGEMLNTLIHHCEAVLHLRFNNGMMVTCSKDRSIAVWDMASPTDITLRRVLVGHRAAVNVVDFDDKYIVSASGDRTIKVWNTSTCEFVRTLNGHKRGIACLQYRDRLVVSGSSDNTIRLWDIECGACLRVLEGHEELVRCIRFDNKRIVSGAYDGKIKVWDLVAALDPRAPAGTLCLRTLVEHSGRVFRLQFDEFQIVSSSHDDTILIWDFLNDPAAQAEPPRSPSRTYTYISR
notes: Untagged βTrCP in lane 1 is the control for the anti-Flag immunoprecipitation; also called F-βTrCP; F-TrCP
For the molecule B1, in assay [4], the binding result is reported as “no binding”.
